The target in this assay is serum proteins. Description: 90% serum, 30 kDa ultrafiltration, HPLC.

In patent US20150031601A1 one finds Protein binding (%) data, which are given here for seven molecules.

B1: SEQ ID NO: 291 (peptide)
peptide: GFCWNVCVYRNGVRVCHRRCW
B1 showed a Protein binding (%) of 99%.

B2: SEQ ID NO: 313 (peptide)
peptide: GFCWRVCVYRNGARKCYRRCN
B2 had a Protein binding (%) of 98%.

B3: SEQ ID NO: 315 (peptide)
peptide: GFCWRVCVYRNGVRKCHRRCN
B3 showed a Protein binding (%) of 93%.

B4: SEQ ID NO: 299 (peptide)
peptide: GFCWNVCVARNGVRVCHRRCN
Turning to B4, the Protein binding (%) amounted to 74%.

B5: SEQ ID NO: 305 (peptide)
peptide: GFCWNVCVKRNGVRVCHRRCN
For the molecule B5, the Protein binding (%) was found to be 76%.

B6: SEQ ID NO: 303 (peptide)
peptide: GFCWNVCVHRNGVRVCHRRCN
B6 displayed a Protein binding (%) of 43%.

B7: SEQ ID NO: 308 (peptide)
peptide: GFCWNVCVRRNGVRVCHRRCN
With B7, the Protein binding (%) turned out to be 94%.
